Results: the Human Domainome abundance scans (Beltran et al. 2025)
± gives the uncertainty stated by the source.

B1: Myocardin, residues 363 to 406; numbered along this chain, Q8IZQ8 (parent)
chain: KPGPLPPNLDDLKVSELRQQLRIRGLPVSGTKTALMDRLRPFQD

Variants of: B1
Experiment: abundance fitness (aPCA) (normalised: wild type 0, dead -1); higher = more abundant; growth selection in yeast, the domain comes from the species named
Details: Homo sapiens
For KPGPLPPNLDDLKVSELRQQLRIRGLPVSGTKNALMDRLRPFQD [T33N], the abundance fitness was -0.001 ± 0.08. Work on KPGPLPPNLDDLKVSELRQQLRIRGLPVSGTKVALMDRLRPFQD [T33V] yielded an abundance fitness of 0.016 ± 0.063. For KPGPLPPNLDDLKVSELRQQLRIRGLPVSGTKDALMDRLRPFQD [T33D], the abundance fitness was 0.138 ± 0.1. KPGPLPPNLDDLKVSELRQQLRIRGLPVSGTKSALMDRLRPFQD [T33S] gave an abundance fitness of -0.071 ± 0.095. For KPGPLPPNLDDLKVSELRQQLRIRGLPVSGTKEALMDRLRPFQD [T33E], the abundance fitness was 0.292 ± 0.078. KPGPLPPNLDDLKVSELRQQLRIRGLPVSGTKWALMDRLRPFQD [T33W] gave an abundance fitness of -0.467 ± 0.099. Work on KPGPLPPNLDDLKVSELRQQLRIRGLPVSGTKAALMDRLRPFQD [T33A] yielded an abundance fitness of 0.077 ± 0.064. In the case of KPGPLPPNLDDLKVSELRQQLRIRGLPVSGTKMALMDRLRPFQD [T33M], the abundance fitness is reported as -0.402 ± 0.14. In the case of KPGPLPPNLDDLKVSELRQQLRIRGLPVSGTKCALMDRLRPFQD [T33C], the abundance fitness is reported as -0.072 ± 0.1. KPGPLPPNLDDLKVSELRQQLRIRGLPVSGTKQALMDRLRPFQD [T33Q] showed an abundance fitness of -0.385 ± 0.21. With KPGPLPPNLDDLKVSELRQQLRIRGLPVSGTKLALMDRLRPFQD [T33L] the abundance fitness was -0.19 ± 0.079. Variant KPGPLPPNLDDLKVSELRQQLRIRGLPVSGTKFALMDRLRPFQD [T33F] has an abundance fitness of -0.144 ± 0.16. For KPGPLPPNLDDLKVSELRQQLRIRGLPVSGTKRALMDRLRPFQD [T33R], the abundance fitness was -0.055 ± 0.059. With KPGPLPPNLDDLKVSELRQQLRIRGLPVSGTKKALMDRLRPFQD [T33K] the abundance fitness was 0.016 ± 0.14. KPGPLPPNLDDLKVSELRQQLRIRGLPVSGTKPALMDRLRPFQD [T33P] showed an abundance fitness of -0.17 ± 0.087. KPGPLPPNLDDLKVSELRQQLRIRGLPVSGTKIALMDRLRPFQD [T33I] showed an abundance fitness of 0.085 ± 0.14. KPGPLPPNLDDLKVSELRQQLRIRGLPVSGTKTALMIRLRPFQD [D37I] showed an abundance fitness of -0.594 ± 0.16. With KPGPLPPNLDDLKVSELRQQLRIRGLPVSGTKTALMLRLRPFQD [D37L] the abundance fitness was -0.51 ± 0.079. Work on KPGPLPPNLDDLKVSELRQQLRIRGLPVSGTKTALMCRLRPFQD [D37C] yielded an abundance fitness of -0.39 ± 0.14. Variant KPGPLPPNLDDLKVSELRQQLRIRGLPVSGTKTALMKRLRPFQD [D37K] has an abundance fitness of -0.245 ± 0.11. With KPGPLPPNLDDLKVSELRQQLRIRGLPVSGTKTALMFRLRPFQD [D37F] the abundance fitness was -1.21 ± 0.22. In the case of KPGPLPPNLDDLKVSELRQQLRIRGLPVSGTKTALMHRLRPFQD [D37H], the abundance fitness is reported as -0.385 ± 0.15. For KPGPLPPNLDDLKVSELRQQLRIRGLPVSGTKTALMARLRPFQD [D37A], the abundance fitness was -0.265 ± 0.062. In the case of KPGPLPPNLDDLKVSELRQQLRIRGLPVSGTKTALMGRLRPFQD [D37G], the abundance fitness is reported as -0.404 ± 0.059. For KPGPLPPNLDDLKVSELRQQLRIRGLPVSGTKTALMERLRPFQD [D37E], the abundance fitness was 0.246 ± 0.076. In the case of KPGPLPPNLDDLKVSELRQQLRIRGLPVSGLKTALMDRLRPFQD [T31L], the abundance fitness is reported as -0.344 ± 0.092. In the case of KPGPLPPNLDDLKVSELRQQLRIRGLPVSGKKTALMDRLRPFQD [T31K], the abundance fitness is reported as -0.217 ± 0.16. KPGPLPPNLDDLKVSELRQQLRIRGLPVSGDKTALMDRLRPFQD [T31D] showed an abundance fitness of 0.155 ± 0.092. Variant KPGPLPPNLDDLKVSELRQQLRIRGLPVSGMKTALMDRLRPFQD [T31M] has an abundance fitness of -0.62 ± 0.22. Variant KPGPLPPNLDDLKVSELRQQLRIRGLPVSGHKTALMDRLRPFQD [T31H] has an abundance fitness of -0.331 ± 0.13. KPGPLPPNLDDLKVSELRQQLRIRGLPVSGAKTALMDRLRPFQD [T31A] gave an abundance fitness of 0.078 ± 0.1. Work on KPGPLPPNLDDLKVSELRQQLRIRGLPVSGNKTALMDRLRPFQD [T31N] yielded an abundance fitness of 0.352 ± 0.11. For KPGPLPPNLDDLKVSELRQQLRIRGLPVSGVKTALMDRLRPFQD [T31V], the abundance fitness was -0.189 ± 0.072. With KPGPLPPNLDDLKVSELRQQLRIRGLPVSGEKTALMDRLRPFQD [T31E] the abundance fitness was -0.01 ± 0.11. For KPGPLPPNLDDLKVSELRQQLRIRGLPVSGWKTALMDRLRPFQD [T31W], the abundance fitness was -0.994 ± 0.13. KPGPLPPNLDDLKVSELRQQLRIRGLPVSGFKTALMDRLRPFQD [T31F] gave an abundance fitness of -0.718 ± 0.39. Variant KPGPLPPNLDDLKVSELRQQLRIRGLPVSGSKTALMDRLRPFQD [T31S] has an abundance fitness of 0.103 ± 0.1. KPGPLPPNLDDLKVSELRQQLRIRGLPVSGCKTALMDRLRPFQD [T31C] gave an abundance fitness of -0.052 ± 0.24. KPGPLPPNLDDLKVSELRQQLRIRGLPVSGGKTALMDRLRPFQD [T31G] showed an abundance fitness of -0.214 ± 0.06. In the case of KPGPLPPNLDDLKVSELRQQLRIRGLPVSGQKTALMDRLRPFQD [T31Q], the abundance fitness is reported as -0.273 ± 0.12. KPGPLPPNLDDLKVSELRQQLRIRGLPVSGPKTALMDRLRPFQD [T31P] gave an abundance fitness of -0.222 ± 0.094. Work on KPGPLPPNLDDLKVSELRQQLRIRGLPVSGRKTALMDRLRPFQD [T31R] yielded an abundance fitness of -0.319 ± 0.085. KPGPLPPNLDDLKVSELRQQLRIRGLPVSGTVTALMDRLRPFQD [K32V] showed an abundance fitness of -0.357 ± 0.09. Work on KPGPLPPNLDDLKVSELRQQLRIRGLPVSGTMTALMDRLRPFQD [K32M] yielded an abundance fitness of -0.696 ± 0.16. Variant KPGPLPPNLDDLKVSELRQQLRIRGLPVSGTSTALMDRLRPFQD [K32S] has an abundance fitness of -0.905 ± 0.11. For KPGPLPPNLDDLKVSELRQQLRIRGLPVSGTITALMDRLRPFQD [K32I], the abundance fitness was -0.488 ± 0.26. With KPGPLPPNLDDLKVSELRQQLRIRGLPVSGTATALMDRLRPFQD [K32A] the abundance fitness was -0.449 ± 0.068. KPGPLPPNLDDLKVSELRQQLRIRGLPVSGTGTALMDRLRPFQD [K32G] showed an abundance fitness of -0.856 ± 0.092. Work on KPGPLPPNLDDLKVSELRQQLRIRGLPVSGTCTALMDRLRPFQD [K32C] yielded an abundance fitness of -0.763 ± 0.16. With KPGPLPPNLDDLKVSELRQQLRIRGLPVSGTYTALMDRLRPFQD [K32Y] the abundance fitness was -0.593 ± 0.31. Variant KPGPLPPNLDDLKVSELRQQLRIRGLPVSGTQTALMDRLRPFQD [K32Q] has an abundance fitness of -0.58 ± 0.11. For KPGPLPPNLDDLKVSELRQQLRIRGLPVSGTFTALMDRLRPFQD [K32F], the abundance fitness was -0.642 ± 0.15. For KPGPLPPNLDDLKVSELRQQLRIRGLPVSGTLTALMDRLRPFQD [K32L], the abundance fitness was -0.784 ± 0.074. In the case of KPGPLPPNLDDLKVSELRQQLRIRGLPVSGTETALMDRLRPFQD [K32E], the abundance fitness is reported as -0.286 ± 0.085. In the case of KPGPLPPNLDDLKVSELRQQLRIRGLPVSGTDTALMDRLRPFQD [K32D], the abundance fitness is reported as -0.489 ± 0.1. With KPGPLPPNLDDLKVSELRQQLRIRGLPVSGTRTALMDRLRPFQD [K32R] the abundance fitness was -0.012 ± 0.054. KPGPLPPNLDDLKVSELRQQLRIRGLPVSGTPTALMDRLRPFQD [K32P] gave an abundance fitness of -0.583 ± 0.071. In the case of KPGPLPPNLDDLKVSELRQQLRIRGLPVSGTWTALMDRLRPFQD [K32W], the abundance fitness is reported as -0.759 ± 0.1.
